Experiment: soluble on expression in E. coli; label from the status in PepcDB or PDB records

Row | Sequence | soluble on expression in E. coli
1 | MKRQRVVVKIGSSSLTDPKGGLCHDKLFDHVEAIAYLKQLGHDVILITSGAVAAGFGPLGYPARPTTIAGKQAAAAVGQSLLMQAYSSAFAQFGFTAAQLLLTRSDFYSRERFRNLFATITTLLENGAVPIINENDSVSIEELTFGDNDMLSALVAGFLHADALILLTDINGLYDANPKTNPQAKKYAFLPEITDEMIEAAGGIGSAVGTGGMRSKLLAARKALSFGVSVFIGAGSGKEKLADILAGKGDGTYIGAPFPKQMQMRKQWIAYHAPVAGTVTVDSGAEEALLMRGKSLLPAGVTAVSGDFHAMDVVDVVNEKGITIGRGQVYYAAADLEKVKGLPSEEARQYSYLHRPEVIHRDNWVTLRKESVSK | not soluble
2 | MGSSHHHHHHGGTGENLYFQGGSGKIFSTLGNPGTLAATKPKKGEVVLASPEATVSKYKEAIKQHKKALKELHACTERFTHALAAVAASLQLLTSDTHIPVMVQSSGALASGIEEVQDGVLLQDLMEELDYSLSTRFKQIAEDQRELKESRERKSKAERTLMLLRSQCDKLQLKKDVDAKVQALYLAKTQKRDEHEVECTRLKAEFEDTFQDFTKRFGILVYEDMKGLTVHLHRVLSALSYQVRKCKDNIMAHPITPKPIAEMS | not soluble
3 | MSLKIAAFGEVMLRFTPPEYLMLEQTEQLRMNFVGTGVNLLANLAHFQLETALITKLPANRLGEAGKAALRKLGISDQWVGEKGDHIGSFFAEMGYGIRPTQVTYQNRHQSAFGISEAKDYDFEAFLAEVDMVHICGISLSLTEKTRDAALILAQKAHAYQKKVCFDFNYRPSLNTANSALFMRQQYERILPYCDIVFGSRRDLVELLGFIPREDLEGEAQETELIQRFMSQYNLEWFAGTTRSHSQNQNYLSGYLYTQNEYQQSEKRPLLNLDRIGAGDAYAAGILYGYSQNWSLEKAVTFATVNGVLAHTIQGDIPLTTVKQVNHVLEHPNIDLIREGHHHHHH | soluble
4 | MGKEYHVAVVGATGAVGTRMIELLAETSLPIASVRLLASKRSAGQEIQFKGQPLIVEELVPESFEGIDLALFSAGGSISEKFAPEAVKRGAVVVDNTSHFRMAKDVPLVVPEVNPEALKNHQGIIANPNCSTIQMMVALEPIRQAFGLERIIVSTYQAVSGAGIRAINELKEQAEDFLEGKPVSEWSAEILPAGSDEKHYPIAFNALPQIDVFSEAGYTYEEWKMMNETKKIMGDNKLKVVATCVRIPVISGHSESVYIEVKQADASVSAIQELMAQAPGVILQDEPSEQLYPQALNSVNQKETFVGRIRQDVDVKNGFHLWIVSDNLLKGAAWNSVQIAETLHEMNLLRVPEND | not soluble
5 | MGSDKIHHHHHHMLDENFEALRREATAWIVRITSGTATTEDAEALLRWRSRSDAHEQAFQQSARLWKNLGSALGETRKTSASTVTRRSFIAAGSVAAGAAGVGVVLSELGFLPSVDAMLADYATGVGEQRTVELVDGSTAILDGGTTLSLDYSPSSRHLVLTSGAAVFDVVHDAARPFVVTAANGDTTATGTSFSVKHGEEDVSIECLEGHITVQCLGDSQLNGGEGISYSRAGLGKKVAADIETAAAWRRGLLIFEDRPLADVVSDLNRHRRGRVVIASSDLRSRRMSGVFHLNRPDEILAHLEETLQVRPVSLVGGIVLLR | not soluble
6 | TKEGQIKGKLLLPGGVKTCPVVLIIAGSGPTDMDGNSAIGNLRNNSLKFLAEGLAANGIASLRFDKRGIGTSASAGKEEAKLRFEDYVNDVTGWIDYLAKEKRFTTITVAGHSEGALIGMLACQNRPKVKGYISVAGAGRPAYEIIEAQVAAQQNPEAVRKEVASINGSLKNGKEVSDVPAYLQSLYRASVQPYLISWFKYNPRTVIASVKVPVLIVQGKNDIQVSVEDAELLKKGCPAAELLLIDKMNHVLKDCESKAVQQQMLTYGNPSLPVNSTLIASVSTFVKKLK | soluble
7 | MGSDKIHHHHHHMITCQMIHKTYAAGHGERKVLRGLDFAISRGEHVGFLGRNGAGKTTLIKLLGGVEFPTAGTIRRRMTVSWPLGFGGGFQGSLTGYDNARFIARIYGMSYRDIADFVEDFTELGRQLRAPVKTYSQGMRARLAFALSMAIEFDCYLVDEVILVGDHRFHEKCRLELFGKRSDRALILASHNAALIREHCTRAMVLHDGRGTMHDDIDLALRHYEAL | not soluble
8 | MLFDSLPRPSERIAPGVAHLPGWLGVDKQAELVREIREIARTYADTPMAMLRPTLKSGGQMSVYQLHLGRYWHYPSYRYIDKIAGTTVPPVPDSLAALAPEALRAAAEVAEELAPWVETFVPEMVLVNYYPPGSRMGMHVDEFEESRAPVISVSIGDEALFRMGHTESRTQPWDDVTLCSGDLVVFGGPKRFAYHGVVRVNDATLPDGCGLEQGRINITIRQVSAAPNVQGR | not soluble
9 | MGSDKIHHHHHHSDDREMDDGRWKASALRVPLQVSSAVIKQEVVTRLAPDPVPLTEGAIGIFLSGTEPESGQEDSGYKVIDNRKYVYSEGHWGPPTANDTIYLVGNDADVCAYYPYKDSYTDKTVIPLQSQDYVETEDIYYALNTMINGFTPAITFDMVHAYSLVELKISRENYFMPCEISKITLKNSNLIKKGTINIAVDGSIHSSETGNYDLTTVTDASPHTLSVGESYVCRVLMIPVPLKIERTDAEGGEFGLSVSLVIDGQQMLVEIPYSELGEFRQGEKYVIGLKIKGTEIVPTVKALEWEDEEVNGGNKYPVE | not soluble
10 | MMRGGMGNMNNMMKQMQKMQKEMAKAQEELGEKTVEGTAGGGMITVIANGHKQILEVKVKEEVVDPEDIEMLQDLVLAATNDALKKADELSNSTMGKFTKGLNLPGGMF | soluble
11 | MALIRATLPVVEPGRTEIHLPHWDGIEQQHGFIHGGVVGMIADSAAGYAAMTLVPAEASVLTVEYKMNLMAPAEGERLIARGEVVRAGRTLIVTRAEVLALRDGAERLCALMQQTIMVMHARPEKLDAPPAALEHHHHHH | not soluble
12 | MSADYPRDLIGYGNNPPHPHWPGDARIALSFVLNYEEGGERCVLHGDKESEAFLSEMVAAQPLQGVRHMSMESLYEYGSRAGVWRLLKLFKRRNVPLTVFAVAMAAQRNPEVIRAMVADGHEICSHGYRWIDYQYMDEAQEREHMLEAIRILTELTGQRPVGWYTGRTGPNTRRLVMEEGGFLYDSDTYDDDLPYWDPASTAEKPHLVIPYTLDTNDMRFTQVQGFNNGEQFFQYLKDAFDVLYEEGATAPKMLSIGLHCRLIGRPARMAALERFIQYAQSHDKVWFARREDIARHWHREHPFQETEA | soluble
13 | MGSDKIHHHHHHAQVTPFTYFNVDWQFNAPISNNFANKASGWGMNFEGGYYVLPDLSIGAFINYHTNNEYISRQTLPISNSAALTTDQQHSVFQLPFGFATHYRFSDGACQPYIGLKLGANYTKMSSDFYIYEVKDNTWGFYVSPEVGVNIYPWTNSIGFHLAAFYSYSTNKGTVFNYDMDKLNNFGFRLGVAF | not soluble
14 | MGSDKIHHHHHHENLYFQGMIIRYATPDDIEDMVSIFIDAYNFPGPRESVKSSFEISLEVQPDGCLLAFLKDEPVGMGCIFFYNKQAWIGLMGVKKAYQRRGIGTEVFRRLLEIGRRKVDTIRLDASSQGYGLYKKFKFVDEYRTVRYELMERPIKRVEGVVEVNKIPNWVKEIDKKAFGDDRIRVLEAYMRRGARLLCAENEGFGLVYRGKIGPLVADSPRVAEKILLKAFQLGAREIIIPEVNKDALELIKIFKPSQVTSCMRMRLGSKIEEKVDIYYGILAYAKG | soluble
15 | PSTVPIMHQVSATMRSITLSWPQPEQPNGIILDYEIRYYEKEHNEFNSSMARSQTNTARIDGLRPGMVYVVQVRARTVAGYGKFSGKMCFQTLTD | soluble
16 | MDRNPSEPERIDWKNPITWISYLYTSFVYYLWLISSHLPHLPQPQRITDDKSTEQITRDAGIPRTEIVTRGDATQTVRQVAGLGDPAPKDSSLLPPSSSFVYCNNCLTPHSSQRTCSPAYVSTLSRQKSLTLLKKLKKPSSSASSTTTTTSSTVSFRAPSRASSTISDASTIRPSELIAIVPSGSHVLLRVPKLDWKTESIRIKRTRMSDWMDAEQRDVMRQFDEVIRSEEEDERTSRKRNGIFKDGSVRSIESLESRSRSKETPVFVPPPPPPTDAMPYLPRLAELNKGTPDQEFGFNLHAERGRGHFIGTVDAGGIGEKAGLEAGQRIVGVNGQLIYPTTGHKEVVALIKKDTMKTTLLVASEDVDKYHKDHNIAYSWDNVERVDTRPVINVETHHHHEEVSVPKSNGYDVPPLNPHSIQVNEEREISKMTTTTRTETITNSNSAYQYKESSTAYDAYATPPVDSNDLMDEVFGRVNLPGVTMSSHTEVLPPTDDISSVSSLSSHRESAVDVPVSHQYVPSYATESHQKHEQHSQTHHHHHQHQQPSPLSNGSSHGYAASSTSGYDDDDIYHLSAREARERLRMKNRKHHLHEMSLNEKYQLVSNM | not soluble
17 | MPALKKIEQSLDHLFQIEKYGKDSAFSRFIPAVYDPIKFPWQQFFEANFVDLFNGLMMHGSENVNKVFLAVFPTDDVLETFISQSTPGDLLFMHHPLVMECGDPLGRSGRGFLPIPEKYLQGIKEKQLSIYTCHVPMDFHQTHGTSISIAKALNATVVDDFAYGGPEQEPVGLICEIDETSTEALQKHLKQLFQIPYTDFEGKRHDSIKKIAIIAGCGDVVSLMKEAEEKGAEAYITGEIHCHIDNDYGRHKYSLIMDYVKETNMSLIGVSHSASEYLVKETLMYDWFKENFDVDVILLPQEKWWLMAGDPLEHHHHHH | not soluble
18 | GPGSMQFTVEQIRSVRNNYLEPPYPGFSLDEVVRRRRLTQTKLVRGENAWVAKGTAQTTEEWVQRLLHGTLNKLTEENKDIMIDKLLTKELFATEDIMNMVVNIIFKKALDEPENSKLYAGVCHSLALYEAKVLRDGHKGERPQSQLRDAIISTAQHEFRTLSKELSKMEDKSEEELEYERSNVMRRKRSNMRFIGELYLCTALTHSTMFTVMDLTMRCSDKTGFPSSENIELLAALLNTIGDRLDKNHKKTLDPYFTSLENFNKKSDCPYPPRIRFKIMDLLDLRKRGWGLKPKPVKAALPPSHGKDKKYATAPPPKKGGRDQGSAAAASKSWRDAATTKTGTAAAPAPSADKGLNGRGTSSAAPAANTAALSSSSASTAAATAPAGASFRDEASPQVPLVKFELRVASMFQEWVADRTNDVILHWVDQFNTCDRFFESESELCVAVAQEVIHSACTTTRKDAQREAFSFLVVGLYMIDTEVFDGFASALASAIEDGLLEDVPKFGERFMSMLRLTSTEQETRADVYFDAANVLRLTYNRLESPDDSAVDTLMSFWDRVPLPSTDEENMIRMDLDVVYSLCNPEGVQDGLEKLLSRIIHSMLQMQLMDAEVLDEFLCLDVEDGLCAKVIADYKERFPK | soluble
19 | MLEAKNLTCIRDDRCLFQQLSFCIAPGEIVQIEGPNGAGKTSLLRILAGLAEADEGQVNWRDKNIRRDRAKYHQDLLFLGHQPGIKSVLTPFENLLFYQSVFQKVDSAAIWQALAQVGLVGYEDLPVSQLSAGQQRRVALARLWLSPAPLWILDEPLTAIDKQGVSTLLALFVQHAAKGGMVLLTTHQDLGAVSHNVRKICLANTQEKSCLSACCAVN | not soluble
20 | DALHDQASALFKPIPEQVTELRGQPISEQQRELGKKLFFDPRLSRSHVLSCNTCHNVGTGGADNVPTSVGHGWQKGPRNSPTVFNAVFNAAQFWDGRAKDLGEQAKGPIQNSVEMHSTPQLVEQTLGSIPEYVDAFRKAFPKAGKPVSFDNMALAIEAYEATLVTPDSPFDLYLKGDDKALDAQQKKGLKAFMDSGCSACHNGINLGGQAYFPFGLVKKPDASVLPSGDKGRFAVTKTQSDEYVFRAAPLRNVALTAPYFHSGQVWELKDAVAIMGNAQLGKQLAPDDVENIVAFLHSLSGKQPRVEYPLLPASTETTPRPAE | soluble

— the DeepSol protein solubility set
